Results from the supplement of paper PMC9233669.
Variants at the floor of the assay were thinned out.

Tests used:
[1] = test system: biotinyl-Met-oxazolone; test: self-aminoacylation, catalytic enhancement (BMO) (fold over background); higher = more active; k-Seq, kA / k0A0; sequences stand for … in GGGAAUGGAUCCACAUCUACGAAUUC…UUCACUGCAGACUUGACGAAGCUG
Outline: (§1)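 Mutagenized RNA pools with a 21-nt variable region (0.43 μM) reacted with each biotinyl-aminoacyl-oxazolone at 2–1250 μM. Reactions ran in 50 μL HEPES/NaCl/KCl/MgCl2/CaCl2 buffer with 5% acetonitrile, pH 6.9–7.0, for 90 minutes at room temperature. Streptavidin-captured RNA was quantified by triplicate qPCR and Illumina sequencing, and per-sequence fraction reacted was fit to a pseudo-first-order model with 1000 bootstraps. Catalytic enhancement is median kA divided by the uncatalyzed rate, the low-activity peak of a bimodal Gaussian fit.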

[2] = test system: biotinyl-Val-oxazolone; test: self-aminoacylation, catalytic enhancement (BVO) (fold over background); higher = more active; k-Seq, kA / k0A0; sequences stand for … in GGGAAUGGAUCCACAUCUACGAAUUC…UUCACUGCAGACUUGACGAAGCUG
Outline: as §1

[3] = test system: biotinyl-Phe-oxazolone; test: self-aminoacylation, catalytic enhancement (BFO) (fold over background); higher = more active; k-Seq, kA / k0A0; sequences stand for … in GGGAAUGGAUCCACAUCUACGAAUUC…UUCACUGCAGACUUGACGAAGCUG
Outline: as §1

[4] = test system: biotinyl-Leu-oxazolone; test: self-aminoacylation, catalytic enhancement (BLO) (fold over background); higher = more active; k-Seq, kA / k0A0; sequences stand for … in GGGAAUGGAUCCACAUCUACGAAUUC…UUCACUGCAGACUUGACGAAGCUG
Outline: as §1

[5] = test system: biotinyl-Ile-oxazolone; test: self-aminoacylation, catalytic enhancement (BIO) (fold over background); higher = more active; k-Seq, kA / k0A0; sequences stand for … in GGGAAUGGAUCCACAUCUACGAAUUC…UUCACUGCAGACUUGACGAAGCUG
Outline: as §1

[6] = test system: biotinyl-Trp-oxazolone; test: self-aminoacylation, catalytic enhancement (BWO) (fold over background); higher = more active; k-Seq, kA / k0A0; sequences stand for … in GGGAAUGGAUCCACAUCUACGAAUUC…UUCACUGCAGACUUGACGAAGCUG
Outline: as §1

Row | Sequence | self-aminoacylation [1] | self-aminoacylation [2] | self-aminoacylation [3] | self-aminoacylation [4] | self-aminoacylation [5] | self-aminoacylation [6]
1 | AUUCACCUAGGACAUCGGCUG [Fam2.2 aminoacylation ribozyme variant] | 2.02 | 1.79 | 10.9 | 2.32 | 1.7 | 2.64
2 | AUUCACCUAGGACAUCGGGUG [Fam2.2 aminoacylation ribozyme variant] | 3.19 | 2.6 | 18.8 | 3.89 | 2.55 | 3.1
3 | AUUCACCUAGGACAUCGGGUU [Fam2.2 aminoacylation ribozyme variant] | 1.39 | 1.77 | 3.67 | 1.38 | 1.47 | 1.25
4 | AUUCACCUAGGAGAUCGGGUG [Fam2.2 aminoacylation ribozyme variant] | 4.82 | 3.54 | 34.3 | 7.83 | 3.82 | 5.46
5 | AUUCACCUAGGCCAUCGGGGG [Fam2.2 aminoacylation ribozyme variant] | 2.64 | 2.82 | 10.8 | 4.55 | 2.5 | 2.28
6 | AUUCACCUAGGCCAUCUGGUG [Fam2.2 aminoacylation ribozyme variant] | 2.74 | 2.05 | 13.2 | 3.29 | 1.54 | 2.35
7 | AUUCACCUAGGCCAUGGGGUG [Fam2.2 aminoacylation ribozyme variant] | 8.03 | 3.87 | 42.5 | 10.2 | 4.58 | 6.1
8 | AUUCACCUAGGCGAUCGGGUG [Fam2.2 aminoacylation ribozyme variant] | 3.5 | 3.52 | 20.4 | 4.89 | 2.88 | 3.78
9 | AUUCACCUAGGGAAUCGGGUG [Fam2.2 aminoacylation ribozyme variant] | 5.05 | 3.23 | 36.4 | 7.44 | 3.54 | 4.86
10 | AUUCACCUAGGGCAUAGGGUG [Fam2.2 aminoacylation ribozyme variant] | 4.74 | 2.76 | 38.6 | 6.33 | 3.22 | 4.16
11 | AUUCACCUAGGGCAUCGAGUG [Fam2.2 aminoacylation ribozyme variant] | 1.45 | 1.2 | 1.76 | 1.65 | 1.26 | 0.91
12 | AUUCACCUAGGGCAUCGGGAG [Fam2.2 aminoacylation ribozyme variant] | 0.855 | 1.04 | 0.472 | 1.1 | 1.07 | 1.08
13 | AUUCACCUAGGGCAUGGGGUG [Fam2.2 aminoacylation ribozyme variant] | 10.1 | 5.39 | 81.4 | 12 | 5.82 | 9.2
14 | AUUCACCUAGGGCCUCGGGUG [Fam2.2 aminoacylation ribozyme variant] | 3.51 | 2.66 | 20.3 | 3.89 | 2.37 | 3.99
15 | AUUCACCUAGGGCUUCGGGUG [Fam2.2 aminoacylation ribozyme variant] | 3.39 | 2.92 | 15.1 | 2.82 | 2.69 | 3.63
16 | AUUCACCUAGGUAAUCGGGCG [Fam2.2 aminoacylation ribozyme variant] | 1.66 | 1.65 | 7.69 | 2.62 | 1.63 | 2.33
17 | AUUCACCUAGGUAAUCGUGUG [Fam2.2 aminoacylation ribozyme variant] | 0.915 | 0.838 | 3.38 | 1.14 | 0.879 | 0.758
18 | AUUCACCUAGGUAGUCGGGUG [Fam2.2 aminoacylation ribozyme variant] | 3.28 | 2.35 | 15.8 | 3.89 | 2.02 | 3.31
19 | AUUCACCUAGGUCAACCGGUG [Fam2.2 aminoacylation ribozyme variant] | 4.9 | 2.72 | 26.6 | 6.28 | 2.99 | 4.14
20 | AUUCACCUAGGUCAACGGCUG [Fam2.2 aminoacylation ribozyme variant] | 1.07 | 1.09 | 0.492 | 1.17 | 1.12 | 0.872
21 | AUUCACCUAGGUCAACGGGUG [Fam2.2 aminoacylation ribozyme variant] | 4.01 | 2.48 | 27.5 | 5.19 | 2.5 | 3.49
22 | AUUCACCUAGGUCACCGGCUG [Fam2.2 aminoacylation ribozyme variant] | 2.27 | 2.36 | 12.9 | 3.16 | 2.51 | 2.12
23 | AUUCACCUAGGUCACCGGGAG [Fam2.2 aminoacylation ribozyme variant] | 2.05 | 1.43 | 5.9 | 1.77 | 1.49 | 1.81
24 | AUUCACCUAGGUCACCGGGUA [Fam2.2 aminoacylation ribozyme variant] | 2.79 | 2.46 | 14 | 3.2 | 2.6 | 3.11
25 | AUUCACCUAGGUCACCGGGUG [Fam2.2 aminoacylation ribozyme variant] | 4.95 | 3.55 | 32.2 | 6.44 | 3.51 | 4.63
26 | AUUCACCUAGGUCACCGGUUG [Fam2.2 aminoacylation ribozyme variant] | 1.62 | 1.7 | 7.82 | 1.55 | 1.92 | 1.29
